Data reported in article PMC6889914, “Identifying dynamic, partially occupied residues using anomalous scattering” (Acta Crystallographica. Section D, Structural Biology, 2019).
Where no end group is shown, it is not given here. [ ]: non-standard residue; d: D form. Phe(4-I) = N[C@@H](Cc1ccc(I)cc1)C(=O)O

T1: Spy H96L (UniProt P77754 24-161, H96L)
T1 sequence: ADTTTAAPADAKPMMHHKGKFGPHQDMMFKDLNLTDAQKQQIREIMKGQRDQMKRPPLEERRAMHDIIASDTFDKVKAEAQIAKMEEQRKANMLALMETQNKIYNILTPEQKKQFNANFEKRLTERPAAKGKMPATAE

T2: Spy H96L (UniProt P77754 24-161, H96L)
T2 construct: also called Super Spy chaperone mutant Spy H96L
T2 sequence (looked up): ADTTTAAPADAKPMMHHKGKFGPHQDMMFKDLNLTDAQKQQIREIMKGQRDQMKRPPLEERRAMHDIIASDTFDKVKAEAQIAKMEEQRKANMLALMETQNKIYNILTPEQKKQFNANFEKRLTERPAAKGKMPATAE


How the values were obtained:
Spy H96L [1] = target: T1, Spy H96L; test: ITC
Spy H96L [2] = target: T2, Spy H96L; test: ITC; MicroCal iTC200; titration of Spy H96L (1.25 mM) with the Im7 6–26 peptides (0.11 µM wild type, 0.055 µM pI-Phe peptides); 10°C; 40 mM HEPES–NaOH pH 7.5, 100 mM NaCl; 2 µl injections at 180 s; one-site model; details: both partners purified

Binder | Ka (Spy H96L [1]) [M⁻¹] | binding result (Spy H96L [2]) | Kd (Spy H96L [2]) [µM]
SISDYTEAEFVQL[Phe(4-I)]KEIEKEN [Im7 6–26 peptide L19pI-Phe] | 219000 | binds | 
SISDYTEAEFVQ[Phe(4-I)]LKEIEKEN [Im7 6–26 peptide L18pI-Phe] | 1.59e+06 | binds | 
SISDYTEAEFVQLLKEIEKEN (also called wild-type Im7 6–26 peptide; Im7 peptide) [Im7 6–26 peptide (wild type)] | 102000 |  | 7.8 ± 0.6
SISDYTEAEFVQLLFEIEKEN (also called L20pI-Phe (as misprinted in places)) [Im7 6–26 peptide K20pI-Phe] | 218000 | binds | 
